In patent publication US7662384B2, “Use of anti-α5β1 antibodies to inhibit cancer cell proliferation” (Facet Biotech Corporation, priority 2004, dated 2010):
One block for each molecule: values may come before it.

Legend:
[1] = biological target: T1, α5β1 integrin on the cell surface of A2058 (Homo sapiens, UniProt P05556+P08648); test: FACS analysis of cancer cell line with IIA1; format: binding; conditions: A2058 (melanoma); IIA1 10 μg/ml; background MFI ~5
T1 construct: endogenous in cells
Procedure: (§1) Cells were removed with 5 mM EDTA in Tris-HCl (pH 8.0) and blocked by centrifugation in Hank's balanced salt solution containing 3% heat inactivated FBS, 1% normal goat serum (Sigma) and 1% BSA at 4° C. for 5 minutes. Cells were incubated for 30-60 minutes at 4° C. with the mouse anti-α5β1 antibody, IIA1 (10 μg/ml) in FACS buffer (PBS containing 0.1% BSA). Excess monoclonal antibody was removed by centrifugation and cells were washed two times with FACS buffer prior to resuspending in PE-anti-mouse IgG (H+ L) antibody (Southern Biotech, 1:400 dilution) for 30-60 minutes at 4° C. After washing cells were re-suspended in FACS buffer containing propidium iodide (1 μg/ml). Mean fluorescence intensity (MFI) was measured on a FACSCalibur (Becton Dickinson). Background MFI was ˜5.

[2] = biological target: T2, α5β1 integrin on the cell surface of A375 (Homo sapiens, UniProt P05556+P08648); test: FACS analysis of cancer cell line with IIA1; format: binding; conditions: A375 (melanoma); IIA1 10 μg/ml; background MFI ~5
T2 construct: endogenous in cells
T2 sequence (P08648 42-894 limits assumed): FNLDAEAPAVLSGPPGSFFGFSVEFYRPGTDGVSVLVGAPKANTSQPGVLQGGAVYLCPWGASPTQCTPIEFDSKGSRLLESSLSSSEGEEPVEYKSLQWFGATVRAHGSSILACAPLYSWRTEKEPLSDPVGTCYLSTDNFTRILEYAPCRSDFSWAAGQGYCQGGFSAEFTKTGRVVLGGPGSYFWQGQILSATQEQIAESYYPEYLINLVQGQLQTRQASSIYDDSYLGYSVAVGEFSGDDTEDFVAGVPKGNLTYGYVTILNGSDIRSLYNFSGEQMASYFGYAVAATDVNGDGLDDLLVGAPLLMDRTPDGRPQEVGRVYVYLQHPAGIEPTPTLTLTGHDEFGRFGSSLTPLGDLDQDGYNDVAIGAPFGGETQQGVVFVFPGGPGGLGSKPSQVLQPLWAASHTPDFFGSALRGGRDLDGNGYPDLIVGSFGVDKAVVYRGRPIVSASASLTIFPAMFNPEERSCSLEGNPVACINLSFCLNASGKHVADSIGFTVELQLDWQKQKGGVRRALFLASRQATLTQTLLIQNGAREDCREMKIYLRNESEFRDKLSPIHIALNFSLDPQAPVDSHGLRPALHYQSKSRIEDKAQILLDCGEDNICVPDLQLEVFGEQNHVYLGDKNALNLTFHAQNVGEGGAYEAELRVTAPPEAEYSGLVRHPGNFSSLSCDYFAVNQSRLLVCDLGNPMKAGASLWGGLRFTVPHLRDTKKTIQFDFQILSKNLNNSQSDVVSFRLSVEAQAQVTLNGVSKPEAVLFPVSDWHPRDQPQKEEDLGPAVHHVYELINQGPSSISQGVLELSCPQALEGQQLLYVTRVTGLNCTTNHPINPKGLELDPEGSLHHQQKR
T2 sequence (P08648 895-1049 limits assumed): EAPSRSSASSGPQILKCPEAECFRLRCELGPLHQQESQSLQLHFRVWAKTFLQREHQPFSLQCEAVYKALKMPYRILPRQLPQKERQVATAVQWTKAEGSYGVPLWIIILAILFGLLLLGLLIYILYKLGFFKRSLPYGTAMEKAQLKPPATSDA
T2 sequence (P05556 21-798): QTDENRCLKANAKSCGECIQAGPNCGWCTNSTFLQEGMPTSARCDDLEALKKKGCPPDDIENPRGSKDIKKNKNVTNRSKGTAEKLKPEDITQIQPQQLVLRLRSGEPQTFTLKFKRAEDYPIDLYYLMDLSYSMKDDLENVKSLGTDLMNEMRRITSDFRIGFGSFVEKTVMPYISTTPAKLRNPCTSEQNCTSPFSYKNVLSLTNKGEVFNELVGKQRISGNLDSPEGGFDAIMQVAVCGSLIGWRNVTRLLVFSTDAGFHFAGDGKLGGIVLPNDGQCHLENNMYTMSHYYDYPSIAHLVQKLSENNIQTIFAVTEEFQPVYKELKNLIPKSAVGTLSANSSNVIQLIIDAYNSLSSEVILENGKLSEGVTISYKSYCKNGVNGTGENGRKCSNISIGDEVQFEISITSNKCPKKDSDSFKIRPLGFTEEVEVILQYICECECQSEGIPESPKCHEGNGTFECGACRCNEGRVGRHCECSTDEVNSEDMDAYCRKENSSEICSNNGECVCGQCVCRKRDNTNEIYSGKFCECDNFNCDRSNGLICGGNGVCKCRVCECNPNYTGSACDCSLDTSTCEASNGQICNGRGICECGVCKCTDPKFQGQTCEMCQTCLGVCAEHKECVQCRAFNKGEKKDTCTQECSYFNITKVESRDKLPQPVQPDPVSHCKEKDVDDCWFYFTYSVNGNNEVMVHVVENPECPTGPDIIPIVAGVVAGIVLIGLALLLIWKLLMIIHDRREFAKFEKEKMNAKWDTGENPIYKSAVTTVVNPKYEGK
Procedure: as §1

[3] = biological target: T3, α5β1 integrin on the cell surface of A549 (Homo sapiens, UniProt P05556+P08648); test: FACS analysis of cancer cell line with IIA1; format: binding; conditions: A549 (lung); IIA1 10 μg/ml; background MFI ~5
T3 construct: endogenous in cells
T3 sequence (P08648 42-894 limits assumed): as the sequence (P08648 42-894 limits assumed) above
T3 sequence (P08648 895-1049 limits assumed): as the sequence (P08648 895-1049 limits assumed) above
T3 sequence (P05556 21-798): as the sequence (P05556 21-798) above
Procedure: as §1

[4] = biological target: T4, α5β1 integrin on the cell surface of COLO 357 (Homo sapiens, UniProt P05556+P08648); test: FACS analysis of cancer cell line with IIA1; format: binding; conditions: COLO 357 (pancreas); IIA1 10 μg/ml; background MFI ~5
T4 construct: endogenous in cells
T4 sequence (P08648 42-894 limits assumed): as the sequence (P08648 42-894 limits assumed) above
T4 sequence (P08648 895-1049 limits assumed): as the sequence (P08648 895-1049 limits assumed) above
T4 sequence (P05556 21-798): as the sequence (P05556 21-798) above
Procedure: as §1

[5] = biological target: T5, α5β1 integrin on the cell surface of EKVX (Homo sapiens, UniProt P05556+P08648); test: FACS analysis of cancer cell line with IIA1; format: binding; conditions: EKVX (lung); IIA1 10 μg/ml; background MFI ~5
T5 construct: endogenous in cells
T5 sequence (P08648 42-1049): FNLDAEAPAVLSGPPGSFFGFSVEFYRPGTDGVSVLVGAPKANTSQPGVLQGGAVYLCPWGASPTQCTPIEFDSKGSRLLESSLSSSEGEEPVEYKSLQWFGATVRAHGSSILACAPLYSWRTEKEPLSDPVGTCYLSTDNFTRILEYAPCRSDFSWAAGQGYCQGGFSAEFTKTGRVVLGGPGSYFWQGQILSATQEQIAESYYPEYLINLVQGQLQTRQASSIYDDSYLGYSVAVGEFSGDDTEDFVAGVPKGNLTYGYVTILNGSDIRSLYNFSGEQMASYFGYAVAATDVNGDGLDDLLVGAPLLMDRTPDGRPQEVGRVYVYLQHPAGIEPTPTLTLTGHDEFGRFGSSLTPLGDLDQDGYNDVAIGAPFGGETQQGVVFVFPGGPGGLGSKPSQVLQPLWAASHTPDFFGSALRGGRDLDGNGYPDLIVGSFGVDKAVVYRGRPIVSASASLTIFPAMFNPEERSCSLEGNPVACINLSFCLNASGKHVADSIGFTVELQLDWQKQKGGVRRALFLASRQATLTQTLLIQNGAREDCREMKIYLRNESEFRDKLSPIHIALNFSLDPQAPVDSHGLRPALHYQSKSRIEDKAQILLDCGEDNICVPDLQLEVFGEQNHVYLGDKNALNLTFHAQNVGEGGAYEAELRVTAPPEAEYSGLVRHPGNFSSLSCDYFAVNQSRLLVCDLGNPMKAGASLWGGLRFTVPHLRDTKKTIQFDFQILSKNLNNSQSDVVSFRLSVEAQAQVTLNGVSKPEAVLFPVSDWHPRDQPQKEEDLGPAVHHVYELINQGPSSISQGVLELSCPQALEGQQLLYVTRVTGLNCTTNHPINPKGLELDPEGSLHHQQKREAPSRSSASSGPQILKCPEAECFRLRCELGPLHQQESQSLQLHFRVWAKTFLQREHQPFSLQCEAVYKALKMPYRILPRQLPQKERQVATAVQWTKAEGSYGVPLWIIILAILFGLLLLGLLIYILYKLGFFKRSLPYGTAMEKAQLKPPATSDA
T5 sequence (P08648 895-1049 limits assumed): as the sequence (P08648 895-1049 limits assumed) above
T5 sequence (P05556 21-798): as the sequence (P05556 21-798) above
Procedure: as §1

[6] = biological target: T6, α5β1 integrin on the cell surface of HT1080 (Homo sapiens, UniProt P05556+P08648); test: FACS analysis of cancer cell line with IIA1; format: binding; conditions: HT1080 (fibrosarcoma); IIA1 10 μg/ml; background MFI ~5
T6 construct: endogenous in cells
T6 sequence (P08648 42-894 limits assumed): as the sequence (P08648 42-894 limits assumed) above
T6 sequence (P08648 895-1049 limits assumed): as the sequence (P08648 895-1049 limits assumed) above
T6 sequence (P05556 21-798): as the sequence (P05556 21-798) above
Procedure: as §1

[7] = biological target: T7, α5β1 integrin on the cell surface of HT1376 (Homo sapiens, UniProt P05556+P08648); test: FACS analysis of cancer cell line with IIA1; format: binding; conditions: HT1376 (bladder); IIA1 10 μg/ml; background MFI ~5
T7 construct: endogenous in cells
T7 sequence (P08648 42-894 limits assumed): as the sequence (P08648 42-894 limits assumed) above
T7 sequence (P08648 895-1049 limits assumed): as the sequence (P08648 895-1049 limits assumed) above
T7 sequence (P05556 21-798): as the sequence (P05556 21-798) above
Procedure: as §1

[8] = biological target: T8, α5β1 integrin on the cell surface of MIA PACA-2 (Homo sapiens, UniProt P05556+P08648); test: FACS analysis of cancer cell line with IIA1; format: binding; conditions: MIA PACA-2 (pancreas); IIA1 10 μg/ml; background MFI ~5
T8 construct: endogenous in cells
T8 sequence (P08648 42-894 limits assumed): as the sequence (P08648 42-894 limits assumed) above
T8 sequence (P08648 895-1049 limits assumed): as the sequence (P08648 895-1049 limits assumed) above
T8 sequence (P05556 21-798): as the sequence (P05556 21-798) above
Procedure: as §1

[9] = biological target: T9, α5β1 integrin on the cell surface of NW231 (Homo sapiens, UniProt P05556+P08648); test: FACS analysis of cancer cell line with IIA1; format: binding; conditions: NW231 (breast); IIA1 10 μg/ml; background MFI ~5
T9 construct: endogenous in cells
T9 sequence (P08648 42-894 limits assumed): as the sequence (P08648 42-894 limits assumed) above
T9 sequence (P08648 895-1049 limits assumed): as the sequence (P08648 895-1049 limits assumed) above
T9 sequence (P05556 21-798): as the sequence (P05556 21-798) above
Procedure: as §1

[10] = biological target: T10, α5β1 integrin on the cell surface of UACC-62 (Homo sapiens, UniProt P05556+P08648); test: FACS analysis of cancer cell line with IIA1; format: binding; conditions: UACC-62 (melanoma); IIA1 10 μg/ml; background MFI ~5
T10 construct: endogenous in cells
T10 sequence (P08648 42-894 limits assumed): as the sequence (P08648 42-894 limits assumed) above
T10 sequence (P08648 895-1049 limits assumed): as the sequence (P08648 895-1049 limits assumed) above
T10 sequence (P05556 21-798): as the sequence (P05556 21-798) above
Procedure: as §1

[11] = biological target: α5β1 integrin binding to fibronectin (Homo sapiens, UniProt P05556+P08648); test: in vitro activity assay: inhibition of binding of α5β1 to fibronectin; format: biochemical
Chain of α5β1 integrin binding to fibronectin (P08648 42-894 limits assumed): as the sequence (P08648 42-894 limits assumed) above
Chain of α5β1 integrin binding to fibronectin (P08648 895-1049 limits assumed): as the sequence (P08648 895-1049 limits assumed) above
Chain of α5β1 integrin binding to fibronectin (P05556 21-798): as the sequence (P05556 21-798) above

[12] = biological target: T11, α5β1 sites on monocytes (Homo sapiens, UniProt P05556+P08648); test: Phase I study: saturation of α5β1 sites on monocytes by flow cytometry; format: in vivo; conditions: 10 mg/kg dosage
T11 construct: endogenous in cells; host or cells: CD14+ monocytes in peripheral blood of human patients
T11 sequence (P08648 42-894 limits assumed): as the sequence (P08648 42-894 limits assumed) above
T11 sequence (P08648 895-1049 limits assumed): as the sequence (P08648 895-1049 limits assumed) above
T11 sequence (P05556 21-798): as the sequence (P05556 21-798) above
Procedure: The integrin α5β1 is also expressed on monocytes in the peripheral blood. To determine the dose at which the α5β1 sites on these circulating cells is saturated by M200, samples of peripheral blood were taken before the first dose on Study Day 1, Study Days 2 and 8, just before each subsequent dose, and on Study Day 43. The saturation of α5β1 sites on monocytes was determined by flow cytometry. The monocytes were identified by using antibodies to CD14. Bound M200 on the monocyte surface was detected by adding labeled anti-human IgG4. Unoccupied (free) α5β1 on the cells was detected by adding labeled IIA1. The percentages of monocytes and lymphocytes expressing α5β1 was also assessed.

T1 sequence (P08648 42-894 limits assumed): as the sequence (P08648 42-894 limits assumed) above
T1 sequence (P08648 895-1049 limits assumed): as the sequence (P08648 895-1049 limits assumed) above
T1 sequence (P05556 21-798): as the sequence (P05556 21-798) above

α5β1 Surface Expression (MFI) [1]: 36.2 MFI | α5β1 Surface Expression (MFI) [2]: 156.1 MFI | α5β1 Surface Expression (MFI) [3]: 71.41 MFI | α5β1 Surface Expression (MFI) [4]: 7.8 MFI | α5β1 Surface Expression (MFI) [5]: 36.7 MFI | α5β1 Surface Expression (MFI) [6]: 421.7 MFI | α5β1 Surface Expression (MFI) [7]: 111.9 MFI | α5β1 Surface Expression (MFI) [8]: 61.9 MFI | α5β1 Surface Expression (MFI) [9]: 132.2 MFI | α5β1 Surface Expression (MFI) [10]: 88.5 MFI
B1: IIA1: parent mouse IgG1 class anti-α5β1 antibody shown to inhibit α5β1 integrin binding to fibronectin (antibody, V domains shown)
VH: MAVLGLLLCLVTFPSCVLSQVQLKESGPGLVAPSQSLSITCTISGFSLTDYGVHWVRQPPGKGLEWLVVIWSDGSSTYNSALKSRMTIRKDNSKSQVFLIMNSLQTDDSAMYYCARHGTYYGMTTTGDALDYWGQGTSVTVSS
VL: MDFQVQIFSFLLISASVIMSRGQIVLTQSPAIMSASLGERVTMTCTASSSVSSNYLHWYQQKPGSAPNLWIYSTSNLASGVPARFSGSGSGTSYSLTISSMEAEDAATYYCHQYLRSPPTFGGGTKLEIK
modifications: mus muscalus

B2: M200: chimeric IgG4 anti-α5β1 antibody derived from IIA1; generic name volociximab (antibody, V domains shown)
VH: B1 VH
VL: MDFQVQIFSFLLISASVIMSRGQIVLTQSPAIMSASLGERVTMTCTASSSVSSNYLHWYQQKPGSAPNLWIYSTSNLASGVPARFSGSGSGTSYSLTISSMEAEDAATYYCHQYLRSPPTFGGGTKLEIKDMSVDMSV
modifications: chimeric antibody
notes: chimeric IgG4 anti-α5β1 antibody derived from IIA1; generic name volociximab
concentration that produces 80% inhibition of binding of α5β1 to fibronectin [11]: 1 µg/mL | monocyte saturation [12]: monocyte saturation
